Test results published in the supplement of paper PMC9112550, “Optimization of the antimicrobial peptide Bac7 by deep mutational scanning” (BMC Biology, 2022).

test system: Escherichia coli TOP10; assay: shrunken log2 fold change of peptide-encoding DNA abundance (4.5 h post-induction vs induction); higher = less antimicrobial activity (less host growth inhibition); conditions: time post-induction: 4.5 h; library: site-saturation at positions 5, 18, 19, 20
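Note: peptides expressed intracellularly from a pBAD plasmid library in pooled LB shake-flask culture, induced with 0.3% L-arabinose, DNA abundance read by NGS, three biological replicates, DESeq2 with apeglm shrinkage.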

Sequence | shrunken log2 fold change
RRIRFRPPRLPRPRPRPIIHPRP | -0.795
RRIRYRPPRLPRPRPRPPDWPRP | 0.299
RRIRRRPPRLPRPRPRPGYHPRP | 0.456
RRIRQRPPRLPRPRPRPGQRPRP | 0.0565
RRIRGRPPRLPRPRPRPYPSPRP | -0.111
RRIRARPPRLPRPRPRPHYCPRP | -0.17
RRIRTRPPRLPRPRPRPPNVPRP | -0.201
RRIRERPPRLPRPRPRPYSGPRP | -0.218
RRIRHRPPRLPRPRPRPRGIPRP | -0.0565
RRIRYRPPRLPRPRPRPHGTPRP | -0.209
RRIRFRPPRLPRPRPRPLSRPRP | -0.102
RRIRFRPPRLPRPRPRPGFSPRP | -0.407
RRIRLRPPRLPRPRPRPKMSPRP | -0.0245
RRIRCRPPRLPRPRPRPFPAPRP | -0.0653
RRIRPRPPRLPRPRPRPQCHPRP | -0.457
RRIRMRPPRLPRPRPRPYRWPRP | -0.00788
RRIRGRPPRLPRPRPRPYCIPRP | 0.174
RRIRDRPPRLPRPRPRPMDNPRP | -0.0115
RRIRCRPPRLPRPRPRPIYRPRP | -0.318
RRIRDRPPRLPRPRPRPPCFPRP | 0.35
RRIRSRPPRLPRPRPRPQYIPRP | -0.206
RRIRWRPPRLPRPRPRPIKCPRP | -0.0271
RRIRTRPPRLPRPRPRPLQVPRP | -0.219
RRIRARPPRLPRPRPRPTKTPRP | 0.247
RRIRPRPPRLPRPRPRPYCCPRP | -0.384

Sequence | shrunken log2 fold change
RRIRARPPRLPRPRPRPQEQPRP | 0.0884
RRIRARPPRLPRPRPRPDLSPRP | 0.209
RRIRNRPPRLPRPRPRPEHNPRP | -0.486
RRIRYRPPRLPRPRPRPKRAPRP | 0.28
RRIRCRPPRLPRPRPRPCYDPRP | -0.316
RRIRERPPRLPRPRPRPHYVPRP | -0.0222
RRIRHRPPRLPRPRPRPDMTPRP | -0.06
RRIRVRPPRLPRPRPRPWCLPRP | -0.198
RRIRMRPPRLPRPRPRPKHKPRP | 0.562
RRIRMRPPRLPRPRPRPQKSPRP | 0.167
RRIRDRPPRLPRPRPRPHDEPRP | 0.167
RRIRKRPPRLPRPRPRPPAAPRP | 0.932
RRIRARPPRLPRPRPRPPGWPRP | 1.22
RRIRQRPPRLPRPRPRPDVFPRP | -0.211
RRIRIRPPRLPRPRPRPYLWPRP | -0.156
RRIRNRPPRLPRPRPRPTDSPRP | -0.21
RRIRLRPPRLPRPRPRPRAFPRP | 0.25
RRIRPRPPRLPRPRPRPDGQPRP | 0.204
RRIRHRPPRLPRPRPRPVRNPRP | 0.0796
RRIRGRPPRLPRPRPRPFLHPRP | 0.0811
RRIRDRPPRLPRPRPRPMILPRP | -0.111
RRIRNRPPRLPRPRPRPHLIPRP | -0.00549
RRIRMRPPRLPRPRPRPRIPPRP | 0.199
RRIRVRPPRLPRPRPRPCTLPRP | -0.196
RRIRIRPPRLPRPRPRPNDMPRP | -1.13

Sequence | shrunken log2 fold change
RRIRNRPPRLPRPRPRPAQCPRP | -0.0739
RRIRHRPPRLPRPRPRPSSNPRP | -0.399
RRIRVRPPRLPRPRPRPDRVPRP | -0.285
RRIRRRPPRLPRPRPRPFKFPRP | -0.0354
RRIRWRPPRLPRPRPRPMMIPRP | -0.0137
RRIRYRPPRLPRPRPRPGYRPRP | -0.46
RRIRHRPPRLPRPRPRPIWRPRP | 0.139
RRIRFRPPRLPRPRPRPWTKPRP | 0.0163
RRIRHRPPRLPRPRPRPCKFPRP | 0.0809
RRIRRRPPRLPRPRPRPKKNPRP | 0.496
RRIRARPPRLPRPRPRPQCMPRP | 0.153
RRIRSRPPRLPRPRPRPAHVPRP | -0.0302
RRIRERPPRLPRPRPRPVPMPRP | -0.041
RRIRIRPPRLPRPRPRPCSRPRP | -0.139
RRIRGRPPRLPRPRPRPHVFPRP | 0.162
RRIRGRPPRLPRPRPRPNVGPRP | 0.125
RRIRGRPPRLPRPRPRPEQGPRP | 0.374
RRIRDRPPRLPRPRPRPGCRPRP | 0.398
RRIRERPPRLPRPRPRPYPCPRP | -0.00884
RRIRNRPPRLPRPRPRPMSNPRP | 0.0527
RRIRVRPPRLPRPRPRPMKPPRP | -0.0376
RRIRVRPPRLPRPRPRPHPWPRP | 0.0927
RRIRDRPPRLPRPRPRPQFRPRP | -0.296
RRIRYRPPRLPRPRPRPVKMPRP | -0.392
RRIRGRPPRLPRPRPRPQMAPRP | 0.923

Sequence | shrunken log2 fold change
RRIRERPPRLPRPRPRPFKFPRP | -0.0774
RRIRERPPRLPRPRPRPIWAPRP | 0.639
RRIRIRPPRLPRPRPRPQVSPRP | -0.21
RRIRWRPPRLPRPRPRPQFPPRP | 0.0157
RRIRKRPPRLPRPRPRPCNTPRP | -0.113
RRIRYRPPRLPRPRPRPDLVPRP | -0.0421
RRIRERPPRLPRPRPRPFKLPRP | -0.42
RRIRGRPPRLPRPRPRPTIFPRP | 0.127
RRIRSRPPRLPRPRPRPRVLPRP | -0.285
RRIRNRPPRLPRPRPRPQASPRP | -0.187
RRIRTRPPRLPRPRPRPWSNPRP | 0.0394
RRIRSRPPRLPRPRPRPHHFPRP | 0.0761
RRIRFRPPRLPRPRPRPFKGPRP | -0.23
RRIRSRPPRLPRPRPRPLMPPRP | 0.121
RRIRPRPPRLPRPRPRPLMVPRP | -0.0973
RRIRMRPPRLPRPRPRPFYTPRP | -0.364
RRIRVRPPRLPRPRPRPYMCPRP | -0.274
RRIRARPPRLPRPRPRPRDMPRP | 1.52
RRIRFRPPRLPRPRPRPWPIPRP | -0.0205
RRIRERPPRLPRPRPRPDFQPRP | -0.37
RRIRSRPPRLPRPRPRPYPHPRP | -0.227
RRIRTRPPRLPRPRPRPNAMPRP | 0.0879
RRIRQRPPRLPRPRPRPWHLPRP | -0.0241
RRIRCRPPRLPRPRPRPGFTPRP | -0.131
RRIRQRPPRLPRPRPRPSPSPRP | -0.144

Sequence | shrunken log2 fold change
RRIRARPPRLPRPRPRPFRHPRP | -0.0722
RRIRPRPPRLPRPRPRPYWRPRP | -0.106
RRIRFRPPRLPRPRPRPEPPPRP | 0.702
RRIRYRPPRLPRPRPRPGMEPRP | -0.0379
RRIRCRPPRLPRPRPRPYMYPRP | -0.912
RRIRGRPPRLPRPRPRPMRSPRP | 0.64
RRIRNRPPRLPRPRPRPGVAPRP | 0.135
RRIRSRPPRLPRPRPRPYQDPRP | 0.0107
RRIRNRPPRLPRPRPRPEGPPRP | 0.026
RRIRHRPPRLPRPRPRPTSTPRP | -0.199
RRIRARPPRLPRPRPRPAMVPRP | 0.109
RRIRERPPRLPRPRPRPHREPRP | -0.0302
RRIRRRPPRLPRPRPRPVQTPRP | 0.178
RRIRPRPPRLPRPRPRPPPCPRP | 0.384
RRIRIRPPRLPRPRPRPAHFPRP | 0.0262
RRIRKRPPRLPRPRPRPMEGPRP | -0.01
RRIRNRPPRLPRPRPRPPYKPRP | -0.311
RRIRYRPPRLPRPRPRPICSPRP | 0.0329
RRIRNRPPRLPRPRPRPKCFPRP | -0.192
RRIRERPPRLPRPRPRPAEQPRP | -0.163
RRIRWRPPRLPRPRPRPCDPPRP | 0.0863
RRIRKRPPRLPRPRPRPADSPRP | 0.00593
RRIRQRPPRLPRPRPRPMGRPRP | -0.00151
RRIRHRPPRLPRPRPRPYMGPRP | -0.201
RRIRTRPPRLPRPRPRPEHPPRP | 0.716

Sequence | shrunken log2 fold change
RRIRDRPPRLPRPRPRPINFPRP | -0.0167
RRIRRRPPRLPRPRPRPESSPRP | 0.53
RRIRFRPPRLPRPRPRPIESPRP | -0.15
RRIRLRPPRLPRPRPRPTGWPRP | 0.303
RRIRSRPPRLPRPRPRPEIHPRP | 0.0186
RRIRKRPPRLPRPRPRPRQDPRP | -0.0954
RRIRSRPPRLPRPRPRPASPPRP | -0.0809
RRIRIRPPRLPRPRPRPAWEPRP | -0.143
RRIRVRPPRLPRPRPRPVIDPRP | 0.0104
RRIRVRPPRLPRPRPRPCGEPRP | -0.256
RRIRLRPPRLPRPRPRPMTHPRP | -0.22
RRIRRRPPRLPRPRPRPWQQPRP | -0.0108
RRIRIRPPRLPRPRPRPCSHPRP | 0.0454
RRIRQRPPRLPRPRPRPSYCPRP | 0.103
RRIRVRPPRLPRPRPRPGPMPRP | 0.189
RRIRHRPPRLPRPRPRPSDVPRP | -0.042
RRIRMRPPRLPRPRPRPRAHPRP | 0.758
RRIRIRPPRLPRPRPRPDSSPRP | -0.318
RRIRDRPPRLPRPRPRPQSKPRP | -0.0457
RRIRFRPPRLPRPRPRPDTVPRP | -0.0794
RRIRIRPPRLPRPRPRPMFPPRP | -0.724
RRIRERPPRLPRPRPRPPQYPRP | -0.517
RRIRDRPPRLPRPRPRPYWKPRP | -0.00829
RRIRGRPPRLPRPRPRPWGYPRP | 0.094
RRIRRRPPRLPRPRPRPRYTPRP | -0.186
